Reference: US11612667B2, “Enhanced in vivo targeting of radiolabelled peptides with the means of enzyme inhibitors” (Advanced Accelerator Applications USA, Inc., priority 2011, dated 2023)
pIC50: −log10 of the molar value. Read-outs that look alike come from different tables or passages of the source. Non-standard residues stand in square brackets, D forms with d. Residues, ends and D or L forms follow the SMILES beside them. *: point of attachment. DOTA = O=C(O)CN1CCN(CC(=O)O)CCN(CC(=O)*)CCN(CC(=O)O)CC1; Tle = CC(C)(C)[C@H](N)C(=O)O; X1 = NCCNCC(CNCCN)C(=O)*; Dab = NCC[C@H](N)C(=O)O; βAla = NCCC(=O)O

Columns and labels:
NEP = NEP (Homo sapiens, UniProt P08473); conditions: reversible competitive inhibitor; cited from earlier work
Sequence of NEP (P08473 whole entry): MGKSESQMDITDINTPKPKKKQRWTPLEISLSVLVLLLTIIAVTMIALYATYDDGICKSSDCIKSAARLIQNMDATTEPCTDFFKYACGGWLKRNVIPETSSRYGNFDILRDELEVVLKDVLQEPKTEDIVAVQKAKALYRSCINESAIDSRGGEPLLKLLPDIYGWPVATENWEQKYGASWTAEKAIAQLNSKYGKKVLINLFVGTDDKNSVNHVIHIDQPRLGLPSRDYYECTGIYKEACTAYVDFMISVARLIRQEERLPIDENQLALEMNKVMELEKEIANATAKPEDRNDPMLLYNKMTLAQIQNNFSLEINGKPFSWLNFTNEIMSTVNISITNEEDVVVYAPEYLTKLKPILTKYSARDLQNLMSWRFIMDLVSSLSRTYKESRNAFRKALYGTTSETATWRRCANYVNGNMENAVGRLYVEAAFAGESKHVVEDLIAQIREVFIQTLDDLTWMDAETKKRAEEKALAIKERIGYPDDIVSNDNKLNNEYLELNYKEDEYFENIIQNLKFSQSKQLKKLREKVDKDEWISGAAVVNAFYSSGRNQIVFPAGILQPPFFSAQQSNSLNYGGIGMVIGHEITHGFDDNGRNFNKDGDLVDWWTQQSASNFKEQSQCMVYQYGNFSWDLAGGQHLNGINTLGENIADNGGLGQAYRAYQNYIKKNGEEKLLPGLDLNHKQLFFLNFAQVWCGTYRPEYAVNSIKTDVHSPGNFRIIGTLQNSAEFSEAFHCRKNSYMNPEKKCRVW

AR4-2J tumors (rsst2+) = system: AR4-2J tumors (rsst2+); design: species or system SCID mice; conditions: SCID, mouse, in vivo, 4 h
Procedure: FIG. 1D: Biodistribution of [(^111In-DOTA)Ala^1]Somatostatin-14 in SCID mice bearing AR4-2J tumors (rsst2^+) at 4 h pi.
FIG. 2C: Biodistribution of [(^111In-DOTA)Ala^1, DTrp^8]Somatostatin-14 in SCID mice bearing AR4-2J tumors (rsst2^+) at 4 h pi.
Of great importance is the direct translation of PA-(or race) induced radiopeptide stabilization into meaningful and dramatic increase of tumor uptake in animals. Indeed, uptake in the rsst2^+ AR4-2J tumor after injection of ^111In[(DOTA)Ala^1]SS14 reached 13.87±2.4% ID/g in the PA-treated group at 4 h pi vs. 0.67±0.1% ID/g in the non-treated controls, while in the race pre-treated mice tumor values reached 3.51±0.2% ID/g, as presented in FIG. 1B. The corresponding values for the DTrp^8-analog, shown in FIG. 2B, reach 9.06±3.57% ID/g (PA group), 4.18±2.28% ID/g (race group) and 1.82±0.36% ID/g (non-treated controls).

[1] = human; cited from earlier work
[2] = mouse; cited from earlier work
[3] = design: species or system Swiss albino mice; conditions: mouse, in vivo, 5 min
Procedure: Whole blood was collected 5 min postinjection (pi), blood cells were removed and major proteins were precipitated and then the supernatant was analyzed by RP-HPLC coupled to a gamma detector.
Alternatively, the dual NEP and ACE inhibitor racecadotril (race; 2.5 mg) was ip injected 45-60 min prior to radioligand injection and the same procedure was followed as described above.
To test the in vivo stability, ^111In-DOTA-MG11 was injected in the tail vein of Swiss albino mice and 5 min afterwards blood was collected, blood cells were removed and major proteins were precipitated and then the supernatant was analyzed by RP-HPLC coupled to a gamma detector. As shown in the radiochromatogram of FIG. 3A, the major part of ^111In-DOTA-MG11 was consumed during this period (<5% intact peptide still detected), in agreement with previous reports. Further, ^111In-DOTA-MG11 was co-injected together with PA or injected 1 h after ip injection of race (2.5 mg) in more mice and the same protocol was followed as above. Amazingly, the percentage of ^111In-DOTA-MG11 found intact in the blood of the PA-treated mice was raised from <5% to 75% and in the race-pretreated mice to 73%.
For ex vivo blood analysis, [^99mTc]Demotensin 6 was injected in the tail vein of Swiss albino mice and blood collected 5 min thereafter was analyzed as previously described. The effect of PA on stability was studied by co-injection of PA along with [^99mTc]Demotensin 6. Furthermore, a PA dose study was performed with the PA injected dose ranging from 300 μg down to 0.03 μg and results are summarized in FIG. 4A.
Additional groups of radiopeptides with relevance for nuclear medicine applications have been studied for their in vivo stability. Radiopeptides were injected in the tail vein of healthy mice, either alone, or with a NEP inhibitor (PA—300 μg), or with a NEP (PA—300 μg) and an ACE (Lis—300 μg) inhibitor mixture; alternatively, another NEP inhibitor prodrug (race—2.5 mg) was ip injected in the animals ˜45 min prior to radioligand injection. Blood was collected 5 min afterwards, and analyzed by RP-HPLC after suitable preparation, as previously described.

WiDr tumors (hNTS1+) = experiment: Biodistribution / tumor uptake in SCID mice bearing WiDr tumors (hNTS1+); conditions: SCID, mouse, in vivo, 4 h
Procedure: FIG. 4H: Biodistribution of [^99mTc]Demotensin 6 in SCID mice bearing WiDr tumors (hNTS1^+) at 4 h pi. Bars represent average uptake as mean % injected dose per gram (% ID/g) of at least 4 animals with standard deviation (control at 4 h 2nd bars); three additional groups of animals received either excess NT(1-13) and PA (100 μg blocker and 300 μg PA—first bars), or PA (300 μg PA—3rd bars) or PA and Lis (300 μg PA+250 μg Lis—4th bars). Bl=blood, Li=liver, He=heart, Ki=kidneys, St=stomach, In=intestines, Sp=spleen, Mu=muscle, Lu=lungs, Pa=pancreas, Fe=femur and Tu=WiDr tumor.
FIG. 5H: Biodistribution of [^99mTc]Demotensin 1 in SCID mice bearing WiDr tumors (hNTS1+) at 4 h pi. Bars represent average uptake as mean % injected dose per gram (% ID/g) of at least 4 animals with standard deviation (control at 4 h 2nd bars); three additional groups of animals received either excess NT and PA (100 μg and 300 μg PA, respectively—first bars), or PA (300 μg PA—3rd bars) or PA and Lis (300 μg PA+300 μg Lis—4th bars). Bl=blood, Li=liver, He=heart, Ki=kidneys, St=stomach, In=intestines, Sp=spleen, Mu=muscle, Lu=lungs, Pa=pancreas, Fe=femur and Tu=WiDr tumor.
In FIG. 4B the effects of such regimens on SCID mice bearing the human colon adenocarcinoma WiDr tumor (a hNTS1R^+ tumor) on enhancing in vivo tumor targeting are presented.
In FIG. 5B the effects of above regimens on SCID mice bearing WiDr tumors (hNTS1R^+) on enhancing in vivo tumor targeting are shown.

AR4-2J tumors (rCCK2R+) = system: AR4-2J tumors (rCCK2R+); design: species or system SCID mice; conditions: mouse, in vivo
Procedure: FIG. 3D: Biodistribution of ^111In-DOTA-MG11 in SCID mice bearing AR4-2J tumors (rCCK2R^+) at 4 h pi.
Biodistribution results in SCID mice bearing rCCK2R^+ AR4-2J tumors 4 h after injection of ^111In-DOTA-MG11 alone or together with PA or 1 h after ip injection of race are shown in FIG. 3B.

SMILES: CC(C)C[C@H](NP(=O)(O)O[C@@H]1O[C@@H](C)[C@H](O)[C@@H](O)[C@H]1O)C(=O)N[C@@H](Cc1c[nH]c2ccccc12)C(=O)O [Phosphoramidon, phosphoramidon]
- pIC50 (NEP): 7.47

SMILES: C[C@H](NC(=O)CN1CCN(CC(=O)O)CCN(CC(=O)O)CCN(CC(=O)O)CC1)C(=O)NCC(=O)N[C@H]1CSSC[C@@H](C(=O)O)NC(=O)[C@H](CO)NC(=O)[C@H]([C@@H](C)O)NC(=O)[C@H](Cc2ccccc2)NC(=O)[C@H]([C@@H](C)O)NC(=O)[C@H](CCCCN)NC(=O)[C@H](Cc2c[nH]c3ccccc23)NC(=O)[C@H](Cc2ccccc2)NC(=O)[C@H](Cc2ccccc2)NC(=O)[C@H](CC(N)=O)NC(=O)[C@H](CCCCN)NC1=O [[(^111In-DOTA)Ala^1]Somatostatin-14, metal not drawn]
- uptake in AR4-2J tumor (AR4-2J tumors (rsst2+)): 0.67±0.1 % ID/g

SMILES: CC(C)C[C@H](NC(=O)[C@@H](NC(=O)[C@H](Cc1ccc(O)cc1)NC(=O)[C@@H]1CCCN1C(=O)[C@H](CCN)NC(=O)[C@H](CCCNC(=N)N)NC(=O)CCNC(=O)C(CNCCN)CNCCN)C(C)(C)C)C(=O)O [[^99mTc]Demotensin 6, ^99mTc-N4-βAla-Arg-Dab-Pro-Tyr-Tle-Leu-OH, metal not drawn] ({X1-βAla}-R[Dab]PY[Tle]L-OH)
- in vitro stability in plasma [1]: stable
- in vitro stability in plasma [2]: stable
- percentage of parent peptide remaining intact [3]: 52%
- uptake in WiDr tumor (WiDr tumors (hNTS1+)): 1.61±0.42 % ID/g

SMILES: CSCC[C@H](NC(=O)[C@H](Cc1c[nH]c2ccccc12)NC(=O)CNC(=O)[C@H](Cc1ccc(O)cc1)NC(=O)[C@H](C)NC(=O)[C@@H](CCC(=O)O)NC(=O)CN1CCN(CC(=O)O)CCN(CC(=O)O)CCN(CC(=O)O)CC1)C(=O)N[C@@H](CC(=O)O)C(=O)N[C@@H](Cc1ccccc1)C(N)=O [^111In-DOTA-MG11, [(^111In-DOTA)DGlu^10]Minigastrin(10-17), metal not drawn] ({DOTA}-[dE]AYGWMDF-NH2)
- percentage of parent peptide remaining intact [3]: < 5%
- uptake in AR4-2J tumor (AR4-2J tumors (rCCK2R+); SCID, 4 h): 1.22±0.06 % ID/g
- increase in the tumor by PA administration (AR4-2J tumors (rCCK2R+)): > 9 fold
